# According to the supplement of paper PMC7125110:
# ± gives the standard error. Variants at the floor of the assay were thinned out.
# B1: glmS ribozyme (parent)
# chain: AUAAAAGCGCCAGAACUACAGAAAUGUAGUUGACGAGGAGGAGGUUUAUCGAAUUUUCGGCGGAUGCCUCCAAA
# What was measured:
# Settings in all cases: with glucosamine-6-phosphate
# [1] = variants of: B1; assay: self-cleavage kobs at 160 uM GlcN6P; higher = faster cleavage; RNA array
# Procedure, shortened: (§1)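 Glucosamine-6-phosphate (40 μM to 10 mM) in HEPES/KCl/Mg(OAc)2 buffer was flowed over sequenced MiSeq chips, and tiles were imaged over ~14 h. Barcoded ribozyme variants there had been transcribed in situ by E. coli RNA polymerase and were tracked through a hybridised Cy3 probe at 37 °C. One- or two-exponential decay fits to per-tile medians, normalised to baseline and to non-cleaving reference variants, gave kobs. kcat and KM came from weighted Michaelis–Menten fits across concentrations.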
# [2] = variants of: B1; assay: self-cleavage kobs at 640 uM GlcN6P; higher = faster cleavage; RNA array
# Procedure, shortened: as §1
# [3] = variants of: B1; assay: self-cleavage kobs at 2500 uM GlcN6P; higher = faster cleavage; RNA array
# Procedure, shortened: as §1
# [4] = variants of: B1; assay: self-cleavage kobs at 10000 uM GlcN6P; higher = faster cleavage; RNA array
# Procedure, shortened: as §1
Variant,self-cleavage kobs at 160 uM GlcN6P [1] [s⁻¹],self-cleavage kobs at 640 uM GlcN6P [2] [s⁻¹],self-cleavage kobs at 2500 uM GlcN6P [3] [s⁻¹],self-cleavage kobs at 10000 uM GlcN6P [4] [s⁻¹]
A36U C61G C70G,6.28e-05 ± 2.3e-05,9.55e-05 ± 2.6e-05,,
A6U G38U G43U,< 1e-05,,< 1e-05,
C8U U47C G62U,< 1e-05,< 1e-05,,
G9A A36G A64C,< 1e-05,,< 1e-05,
C16A U49C,< 1e-05,< 1e-05,,< 1e-05
G9A G44C C68A,< 1e-05,< 1e-05,< 1e-05,
A14U U45A U46C,0.000306 ± 0.0001,0.00108 ± 0.00027,0.00191 ± 0.00053,
U30A G32C G62A,< 1e-05,,< 1e-05,
G9C A33U A36G U45A A48C,< 1e-05,< 1e-05,< 1e-05,
U47A C58A,2.53e-05 ± 1.2e-05,7.69e-05 ± 1.4e-05,0.00024 ± 2.9e-05,
A1U U2A G63A,< 1e-05,,,
A14C U30G A36U A53G,< 1e-05,< 1e-05,< 1e-05,
G32U G60C,< 1e-05,< 1e-05,< 1e-05,
C8A C70G,< 1e-05,,,
C8U C11U C16G U55G,< 1e-05,< 1e-05,,
A15G G51C,< 1e-05,< 1e-05,< 1e-05,< 1e-05
C16U G43U U57C,< 1e-05,< 1e-05,< 1e-05,
A12U U31G U69C,0.000336 ± 6.5e-05,0.000408 ± 0.00019,0.0026 ± 0.00042,
G51U A52U U65G,< 1e-05,< 1e-05,< 1e-05,
C34G G63A,< 1e-05,< 1e-05,< 1e-05,< 1e-05
A15C U30G U31G,0.00201 ± 0.00083,0.0146 ± 0.0069,0.00946 ± 0.0035,
C11A G38C,< 1e-05,,< 1e-05,

Variant,self-cleavage kobs at 160 uM GlcN6P [1] [s⁻¹],self-cleavage kobs at 640 uM GlcN6P [2] [s⁻¹],self-cleavage kobs at 2500 uM GlcN6P [3] [s⁻¹],self-cleavage kobs at 10000 uM GlcN6P [4] [s⁻¹]
G9U A48U U57A,< 1e-05,,< 1e-05,< 1e-05
A53G C58A C68G,0.000121 ± 4.6e-05,,0.000107 ± 2.5e-05,
A39C G41U U46G,< 1e-05,,,
A12G G40A C61U,< 1e-05,,,
A6U C11A,< 1e-05,< 1e-05,< 1e-05,
C16A A33G A64G C71G,8.57e-05 ± 3.4e-05,,6.35e-05 ± 2.8e-05,
G7A U30G,< 1e-05,,< 1e-05,
A33C G40C A52G G63A,< 1e-05,< 1e-05,< 1e-05,
G13U A42U,< 1e-05,< 1e-05,< 1e-05,
G35C C71A,< 1e-05,< 1e-05,< 1e-05,
C10A A33C G44A A52G U65A,< 1e-05,,,
G38A A42G G60A,< 1e-05,,,
G32C G51C C68U,< 1e-05,,< 1e-05,
C11A G41U G43C,< 1e-05,< 1e-05,,
C10G G37C A48U C61A U69C,< 1e-05,,< 1e-05,
C10G G13A U31A C50A G59U,< 1e-05,,,
A48G G66C,< 1e-05,< 1e-05,< 1e-05,< 1e-05
U31G G41U U47G G62U A64U C70G,< 1e-05,< 1e-05,,
C34U U47G,< 1e-05,< 1e-05,,
G43U U57A,< 1e-05,,< 1e-05,
A52U G60A G66C,< 1e-05,< 1e-05,,
G29A U31G G62A,< 1e-05,,,

Variant,self-cleavage kobs at 160 uM GlcN6P [1] [s⁻¹],self-cleavage kobs at 640 uM GlcN6P [2] [s⁻¹],self-cleavage kobs at 2500 uM GlcN6P [3] [s⁻¹],self-cleavage kobs at 10000 uM GlcN6P [4] [s⁻¹]
G9U G29A G35U U46G,< 1e-05,< 1e-05,< 1e-05,
G9A U46C G63C,< 1e-05,< 1e-05,,
C8G G44C,< 1e-05,< 1e-05,< 1e-05,< 1e-05
G7U C10A G29C U57C,< 1e-05,< 1e-05,< 1e-05,
G63A C70G C71G,5.57e-05 ± 1.4e-05,4.83e-05 ± 1.9e-05,,
A12U U45G U56A,0.000953 ± 0.00021,0.00298 ± 0.0006,,
A6G C16G G38A,< 1e-05,< 1e-05,,
C11G A36C G41C G60A,< 1e-05,< 1e-05,< 1e-05,
A6G U57A G60A C71G,< 1e-05,< 1e-05,< 1e-05,
C8U G60U C68U,< 1e-05,< 1e-05,< 1e-05,< 1e-05
G29C A33C C61G C68U,< 1e-05,< 1e-05,,< 1e-05
G38C A64G,< 1e-05,< 1e-05,,
G9A U30C A42C C70U,< 1e-05,< 1e-05,,
C58A U69A,4.65e-05 ± 2.2e-05,9.55e-05 ± 2.9e-05,0.000101 ± 3.1e-05,
G41C G51C A64C,< 1e-05,,,
G43U U47G U65C,< 1e-05,,< 1e-05,
A36C G41C C50U A64U C68A,< 1e-05,< 1e-05,< 1e-05,< 1e-05
U45G U57A G59A G62U,< 1e-05,,< 1e-05,< 1e-05
G38C U45A,< 1e-05,< 1e-05,,
A52C A53G G62C,< 1e-05,,,< 1e-05
C61A A64C,< 1e-05,< 1e-05,< 1e-05,< 1e-05
G41C U54G C67U,< 1e-05,,,

Variant,self-cleavage kobs at 160 uM GlcN6P [1] [s⁻¹],self-cleavage kobs at 640 uM GlcN6P [2] [s⁻¹],self-cleavage kobs at 2500 uM GlcN6P [3] [s⁻¹],self-cleavage kobs at 10000 uM GlcN6P [4] [s⁻¹]
U31C A64U U65A,< 1e-05,< 1e-05,,
A12U U69G C70A,7.03e-05 ± 2.1e-05,8.9e-05 ± 2.3e-05,3.11e-05 ± 1.5e-05,
C8G A33C A48C U69G,< 1e-05,,< 1e-05,
G59U C67U U69A,6.91e-05 ± 2.5e-05,,,
G13A A33C U55A,< 1e-05,< 1e-05,< 1e-05,
U69G C70G,3.61e-05 ± 8.8e-06,0.000255 ± 0.00013,3.6e-05 ± 9.1e-06,
A15U G38C C71A,< 1e-05,,< 1e-05,
C8U G32U G62U C71U,< 1e-05,,< 1e-05,
C34G A64U C67U,< 1e-05,< 1e-05,,
C16U G43U G59U,< 1e-05,< 1e-05,,
A15G U55G C70A,7.19e-05 ± 1.2e-05,0.000151 ± 2.6e-05,0.000186 ± 3.7e-05,
G37U A42U A53G,< 1e-05,,< 1e-05,
G37U G51C A52U G63U,< 1e-05,,,
G7U C8U A12G G51C C61U,< 1e-05,< 1e-05,,
A15G U49G G63U C67A,< 1e-05,< 1e-05,,
G38U U56C U65A,< 1e-05,,< 1e-05,< 1e-05
C16G G51U U56C C70U,< 1e-05,< 1e-05,,
A39G G41C U46G A64U,< 1e-05,,,
C10G G32U C34U G40U G41C,< 1e-05,< 1e-05,< 1e-05,
C10U A42C G63A,< 1e-05,< 1e-05,< 1e-05,
A6U A42U C61G,< 1e-05,,,
C8U A52G,< 1e-05,< 1e-05,< 1e-05,< 1e-05

Variant,self-cleavage kobs at 160 uM GlcN6P [1] [s⁻¹],self-cleavage kobs at 640 uM GlcN6P [2] [s⁻¹],self-cleavage kobs at 2500 uM GlcN6P [3] [s⁻¹],self-cleavage kobs at 10000 uM GlcN6P [4] [s⁻¹]
A48C G62U,< 1e-05,< 1e-05,< 1e-05,
G32U G41A U47G C61A G62U,< 1e-05,< 1e-05,< 1e-05,
U31A G43A,< 1e-05,< 1e-05,,2.99e-05 ± 9.3e-06
A42C U45G,< 1e-05,< 1e-05,,
G43U U69C C70G,< 1e-05,< 1e-05,,
U57C C58U,< 1e-05,,,
G29U G35U G38U A52G,< 1e-05,< 1e-05,,
A14G A15G G35U,< 1e-05,< 1e-05,< 1e-05,
G9U A39G,< 1e-05,,< 1e-05,
A14C A39U U56A G63U,< 1e-05,,,
C10G A14U A42U G60C C67G,< 1e-05,,,
U31A A33G A48G,< 1e-05,,,
G41C A48G G63U,< 1e-05,< 1e-05,< 1e-05,
A53G U55A G66U,0.000163 ± 4.6e-05,0.000436 ± 9.4e-05,0.000351 ± 0.00011,
C10A G40A C71A,< 1e-05,< 1e-05,,
C10U C11G A14G G43C A53C,< 1e-05,< 1e-05,< 1e-05,
A33U G35C U57C U65C,< 1e-05,< 1e-05,< 1e-05,
A42U U45C A52G G59U,< 1e-05,,,
